Laboratory results: paper PMC4525183, “Snf1/AMP-activated protein kinase activates Arf3p to promote invasive yeast growth via a non-canonical GEF domain” (Nature Communications, 2015)

T1: GST-Snf1-C (a.a. 311–633) (S. cerevisiae, UniProt P06782 311-633)
T1 construct: Snf1p, S. cerevisiae, C-terminal regulatory domain, a.a; 311–633; Vector pGEX4T-1; also called C-terminal regulatory domain of Snf1p; source: E. coli BL21 (DE3), purified (glutathione-Sepharose 4B)
T1 sequence (looked up): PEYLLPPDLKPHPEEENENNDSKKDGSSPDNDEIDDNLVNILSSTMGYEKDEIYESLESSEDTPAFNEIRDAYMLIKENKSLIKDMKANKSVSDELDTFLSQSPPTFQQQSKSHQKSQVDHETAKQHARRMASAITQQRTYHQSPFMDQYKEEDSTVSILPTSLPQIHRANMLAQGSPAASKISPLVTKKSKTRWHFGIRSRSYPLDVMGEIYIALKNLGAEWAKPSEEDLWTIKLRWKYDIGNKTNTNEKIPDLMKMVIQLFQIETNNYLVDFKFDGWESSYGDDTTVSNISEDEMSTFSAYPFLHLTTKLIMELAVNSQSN

B1: His-Arf3^T31N (natural protein, S. cerevisiae, UniProt P40994 1-183, looked up)
chain: MGNSISKVLGKLFGSKEMKILMLGLDKAGKNTILYKLKLNKIKTSTPTVGFNVETVTYKNVKFNMWDVGGQQRLRPLWRHYFPATTALIFVIDSSARNRMEEAKEELYSIIGEKEMENVVLLVWANKQDLKDAMKPQEVSDFLELEKNLKNQPWCVIGSNALSGQGLVEGLSWISNNTNVPKK
notes: Arf3p, S. cerevisiae; T31N; plasmid pET32a-ARF3 (T31N); pET32a usually adds thioredoxin, His and S tags before the insert

Assays:
[1] = biological target: B1; assay: pull-down; GST fusions on glutathione-Sepharose 4B beads, His-tagged protein in solution (His-Arf3 loaded with GDP or GTPγS); 50 mM Tris-HCl pH 7.5, 150 mM NaCl, 1% Triton X-100, 1 mM DTT, 10 mM MgCl2; 1 h, 4 °C; anti-His blot; settings: both partners purified
[2] = biological target: T1, GST-Snf1-C (a.a. 311–633); assay: as above; settings: both partners purified

binding result [1]	binding result [2]	Binder
binds		GST-Snf1-C1 (a.a. 392–518) (domain or fragment, S. cerevisiae, UniProt P06782 392-518, looked up, Snf1p, S. cerevisiae, a.a; Vector pGEX4T-1; source: E. coli BL21 (DE3), purified (glutathione-Sepharose 4B)) LIKDMKANKSVSDELDTFLSQSPPTFQQQSKSHQKSQVDHETAKQHARRMASAITQQRTYHQSPFMDQYKEEDSTVSILPTSLPQIHRANMLAQGSPAASKISPLVTKKSKTRWHFGIRSRSYPLDV
	binds	B1
